Assay results reported in article doi:10.1101/2020.12.15.422856 (bioRxiv, 2020).

Target: the molecule itself
Experiment: SEC

B1: Mer2 (wild-type, full-length) (natural protein)
chain: MVARGRTDEISTDVSEANSEHSLMITETSSPFRSIFSHSGKVANAGALEESDKQILEWAGKLELESMELRENSDKLIKVLNENSKTLCKSLNKFNQLLEQDAATNGNVKTLIKDLASQIENQLDKVSTAMLSKGDEKKTKSDSSYRQVLVEEISRYNSKITRHVTNKQHETEKSMRCTQEMLFNVGSQLEDVHKVLLSLSKDMHSLQTRQTALEMAFREKADHAYDRPDVSLNGTTLLHDMDEAHDKQRKKSVPPPRMMVTRSMKRRRSSSPTLSTSQNHNSEDNDDASHRLKRAARTIIPWEELRPDTLESEL
binding result: binds
